Drawing on US20060211610A1 (IPSEN PHARMA S A S, published 2006), this text covers Ki for 12 molecules.

Non-standard residues stand in square brackets, D forms with d. Ala(4-thiazolyl) = N[C@@H](Cc1cscn1)C(=O)O; 2Pal = N[C@@H](Cc1ccccn1)C(=O)O; 3Pal = N[C@@H](Cc1cccnc1)C(=O)O; 4Pal = N[C@@H](Cc1ccncc1)C(=O)O; d2Pal = N[C@H](Cc1ccccn1)C(=O)O; Ac6c = NC1(C(=O)O)CCCCC1; Ac5c = NC1(C(=O)O)CCCC1

For one assay, the target named is T1, Y2 receptor (human, UniProt P49146 1-381).
T1 construct: whole, on cells; Assayed as membrane homogenates of SK-N-BE2 cells, not intact cells
T1 sequence (looked up): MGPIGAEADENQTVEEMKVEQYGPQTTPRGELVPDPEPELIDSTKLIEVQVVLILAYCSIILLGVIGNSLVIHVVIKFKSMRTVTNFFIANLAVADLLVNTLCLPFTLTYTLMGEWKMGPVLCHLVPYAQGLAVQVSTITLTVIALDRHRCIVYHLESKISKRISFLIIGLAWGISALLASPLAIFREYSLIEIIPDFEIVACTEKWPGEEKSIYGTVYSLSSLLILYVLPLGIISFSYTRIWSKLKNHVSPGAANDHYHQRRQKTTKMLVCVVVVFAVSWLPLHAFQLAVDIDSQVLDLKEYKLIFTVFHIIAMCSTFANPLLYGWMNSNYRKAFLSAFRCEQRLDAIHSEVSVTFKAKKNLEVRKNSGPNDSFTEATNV
Nature of the assay: radioligand competition against [125I]PYY(3-36), SK-N-BE2 membranes, Cheng-Prusoff.

A further assay concerns the target T2, Y1 receptor (human, UniProt P25929 1-384).
T2 construct: whole, on cells; Assayed as membrane homogenates of SK-N-MC cells, not intact cells; also called NPY Y1
T2 sequence (looked up): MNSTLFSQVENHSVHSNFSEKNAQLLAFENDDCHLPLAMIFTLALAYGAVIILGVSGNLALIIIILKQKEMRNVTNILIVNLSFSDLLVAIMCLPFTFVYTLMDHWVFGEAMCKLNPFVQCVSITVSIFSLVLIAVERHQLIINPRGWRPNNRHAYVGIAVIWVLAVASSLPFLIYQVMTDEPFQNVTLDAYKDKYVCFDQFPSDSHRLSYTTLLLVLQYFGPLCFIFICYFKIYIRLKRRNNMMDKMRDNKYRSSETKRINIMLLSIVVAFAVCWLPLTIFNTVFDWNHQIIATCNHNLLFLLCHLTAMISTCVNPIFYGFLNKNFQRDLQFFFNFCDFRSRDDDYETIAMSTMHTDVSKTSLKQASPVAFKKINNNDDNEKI
Nature of the assay: radioligand competition against [125I-Leu31,Pro34]PYY, SK-N-MC membranes, Cheng-Prusoff. A general note: In a radioligand displacement assay an active substance lowers the binding of a labelled ligand.

Description for Y1 receptor: (§1) The final pellets were resuspended in approximately 20 ml of 50 mM Tris-HCl containing 5.0 mM MgCl₂, 0.1 mg/ml bacitracin, and 0.1% BSA (Buffer B), and held on ice for the receptor binding assay.
(§2) For assay, aliquots (0.4 ml) of the foregoing suspensions were incubated with 0.05 ml of 0.05 nM [¹²⁵I-Leu³¹, Pro³⁴]PYY (Y1 receptor) or [¹²⁵I]PYY(3-36) (Y2 receptor), (each ˜2200 Ci/mmol, New England Nuclear) in Buffer B, with or without 0.05 ml a solution (ranging from 0.01 nM -1000 nM) of an unlabeled competing peptide. After a 120 min incubation (25° C.), the bound radioligand was separated from the free by rapid filtration through GF/C filters, previously soaked in 0.3% polyethyleneimine. […] Inhibition constants (K₁,) were calculated using the well-known Cheng-Prusoff equation.
Description for Y2 receptor: as §1, §2

B1: Ac-[D2Pal^26]hPYY(22-36)NH2 (peptide)
peptide: Ac-ASLR[d2Pal]YLNLVTRQRY-NH2
SMILES: CC(=O)N[C@@H](C)C(=O)N[C@@H](CO)C(=O)N[C@@H](CC(C)C)C(=O)N[C@@H](CCCNC(=N)N)C(=O)N[C@H](Cc1ccccn1)C(=O)N[C@@H](Cc1ccc(O)cc1)C(=O)N[C@@H](CC(C)C)C(=O)N[C@@H](CC(N)=O)C(=O)N[C@@H](CC(C)C)C(=O)N[C@H](C(=O)N[C@H](C(=O)N[C@@H](CCCNC(=N)N)C(=O)N[C@@H](CCC(N)=O)C(=O)N[C@@H](CCCNC(=N)N)C(=O)N[C@@H](Cc1ccc(O)cc1)C(N)=O)[C@@H](C)O)C(C)C
notes: Synthetic analog of human PYY(22-36)
On to B1, for which the figures for the Ki with Y2 receptor and in the assay with Y1 receptor were below 1000 nM and below 2000 nM, respectively.

B2: Ac-(2Pal^26, Leu^31)hPPY(24-36)NH2 (peptide)
peptide: Ac-LR[2Pal]YLNLLTRQRY-NH2
SMILES: CC(=O)N[C@@H](CC(C)C)C(=O)N[C@@H](CCCNC(=N)N)C(=O)N[C@@H](Cc1ccccn1)C(=O)N[C@@H](Cc1ccc(O)cc1)C(=O)N[C@@H](CC(C)C)C(=O)N[C@@H](CC(N)=O)C(=O)N[C@@H](CC(C)C)C(=O)N[C@@H](CC(C)C)C(=O)N[C@H](C(=O)N[C@@H](CCCNC(=N)N)C(=O)N[C@@H](CCC(N)=O)C(=O)N[C@@H](CCCNC(=N)N)C(=O)N[C@@H](Cc1ccc(O)cc1)C(N)=O)[C@@H](C)O
notes: Also carries Leu at 31 (residue 8 of the peptide), already in the entry
As to B2, the Ki is below 1000 nM in the assay with Y2 receptor and below 2000 nM with Y1 receptor.

B3: Ac-(4Pal^26, Leu^31)hPPY(24-36)NH2 (peptide)
peptide: Ac-LR[4Pal]YLNLLTRQRY-NH2
SMILES: CC(=O)N[C@@H](CC(C)C)C(=O)N[C@@H](CCCNC(=N)N)C(=O)N[C@@H](Cc1ccncc1)C(=O)N[C@@H](Cc1ccc(O)cc1)C(=O)N[C@@H](CC(C)C)C(=O)N[C@@H](CC(N)=O)C(=O)N[C@@H](CC(C)C)C(=O)N[C@@H](CC(C)C)C(=O)N[C@H](C(=O)N[C@@H](CCCNC(=N)N)C(=O)N[C@@H](CCC(N)=O)C(=O)N[C@@H](CCCNC(=N)N)C(=O)N[C@@H](Cc1ccc(O)cc1)C(N)=O)[C@@H](C)O
notes: as for B2
Regarding B3, the values for the inhibition constant Ki with Y2 receptor and in the assay with Y1 receptor were below 1000 nM and below 2000 nM, respectively.

B4: Ac-[4Pal^26]hPYY(22-36)NH2 (peptide)
peptide: Ac-ASLR[4Pal]YLNLVTRQRY-NH2
SMILES: CC(=O)N[C@@H](C)C(=O)N[C@@H](CO)C(=O)N[C@@H](CC(C)C)C(=O)N[C@@H](CCCNC(=N)N)C(=O)N[C@@H](Cc1ccncc1)C(=O)N[C@@H](Cc1ccc(O)cc1)C(=O)N[C@@H](CC(C)C)C(=O)N[C@@H](CC(N)=O)C(=O)N[C@@H](CC(C)C)C(=O)N[C@H](C(=O)N[C@H](C(=O)N[C@@H](CCCNC(=N)N)C(=O)N[C@@H](CCC(N)=O)C(=O)N[C@@H](CCCNC(=N)N)C(=O)N[C@@H](Cc1ccc(O)cc1)C(N)=O)[C@@H](C)O)C(C)C
notes: as for B1
As for B4, the Ki is below 1000 nM with Y2 receptor and below 2000 nM with Y1 receptor.

B5: Ac-[A6c^31]hPYY(22-36)NH2 (peptide)
peptide: Ac-ASLRHYLNL[Ac6c]TRQRY-NH2
SMILES: CC(=O)N[C@@H](C)C(=O)N[C@@H](CO)C(=O)N[C@@H](CC(C)C)C(=O)N[C@@H](CCCNC(=N)N)C(=O)N[C@@H](Cc1c[nH]cn1)C(=O)N[C@@H](Cc1ccc(O)cc1)C(=O)N[C@@H](CC(C)C)C(=O)N[C@@H](CC(N)=O)C(=O)N[C@@H](CC(C)C)C(=O)NC1(C(=O)N[C@H](C(=O)N[C@@H](CCCNC(=N)N)C(=O)N[C@@H](CCC(N)=O)C(=O)N[C@@H](CCCNC(=N)N)C(=O)N[C@@H](Cc2ccc(O)cc2)C(N)=O)[C@@H](C)O)CCCCC1
notes: as for B1
Consider B5, for which the Ki with Y2 receptor was below 1000 nM; with Y1 receptor, below 2000 nM.

B6: Ac-(Taz^26, Leu^31)hPPY(24-36)NH2 (peptide)
peptide: Ac-LR[Ala(4-thiazolyl)]YLNLLTRQRY-NH2
SMILES: CC(=O)N[C@@H](CC(C)C)C(=O)N[C@@H](CCCNC(=N)N)C(=O)N[C@@H](Cc1cscn1)C(=O)N[C@@H](Cc1ccc(O)cc1)C(=O)N[C@@H](CC(C)C)C(=O)N[C@@H](CC(N)=O)C(=O)N[C@@H](CC(C)C)C(=O)N[C@@H](CC(C)C)C(=O)N[C@H](C(=O)N[C@@H](CCCNC(=N)N)C(=O)N[C@@H](CCC(N)=O)C(=O)N[C@@H](CCCNC(=N)N)C(=O)N[C@@H](Cc1ccc(O)cc1)C(N)=O)[C@@H](C)O
notes: as for B2
Turning to B6, the inhibition constant (Ki) with Y2 receptor was below 1000 nM; with Y1 receptor, below 2000 nM.

B7: Ac-[A5c^31]hPYY(22-36)NH2 (peptide)
peptide: Ac-ASLRHYLNL[Ac5c]TRQRY-NH2
SMILES: CC(=O)N[C@@H](C)C(=O)N[C@@H](CO)C(=O)N[C@@H](CC(C)C)C(=O)N[C@@H](CCCNC(=N)N)C(=O)N[C@@H](Cc1c[nH]cn1)C(=O)N[C@@H](Cc1ccc(O)cc1)C(=O)N[C@@H](CC(C)C)C(=O)N[C@@H](CC(N)=O)C(=O)N[C@@H](CC(C)C)C(=O)NC1(C(=O)N[C@H](C(=O)N[C@@H](CCCNC(=N)N)C(=O)N[C@@H](CCC(N)=O)C(=O)N[C@@H](CCCNC(=N)N)C(=O)N[C@@H](Cc2ccc(O)cc2)C(N)=O)[C@@H](C)O)CCCC1
notes: as for B1
As for B7, the inhibition constant (Ki) with Y2 receptor is below 1000 nM; with Y1 receptor, below 2000 nM.

B8: Ac-[2Pal^26]hPYY(22-36)NH2 (peptide)
peptide: Ac-ASLR[2Pal]YLNLVTRQRY-NH2
SMILES: CC(=O)N[C@@H](C)C(=O)N[C@@H](CO)C(=O)N[C@@H](CC(C)C)C(=O)N[C@@H](CCCNC(=N)N)C(=O)N[C@@H](Cc1ccccn1)C(=O)N[C@@H](Cc1ccc(O)cc1)C(=O)N[C@@H](CC(C)C)C(=O)N[C@@H](CC(N)=O)C(=O)N[C@@H](CC(C)C)C(=O)N[C@H](C(=O)N[C@H](C(=O)N[C@@H](CCCNC(=N)N)C(=O)N[C@@H](CCC(N)=O)C(=O)N[C@@H](CCCNC(=N)N)C(=O)N[C@@H](Cc1ccc(O)cc1)C(N)=O)[C@@H](C)O)C(C)C
notes: as for B1
As for B8, the results for the Ki in the assay with Y2 receptor and with Y1 receptor were below 1000 nM and below 2000 nM, respectively.

B9: Ac-[A6c^30]hPYY(22-36)NH2 (peptide)
peptide: Ac-ASLRHYLN[Ac6c]VTRQRY-NH2
SMILES: CC(=O)N[C@@H](C)C(=O)N[C@@H](CO)C(=O)N[C@@H](CC(C)C)C(=O)N[C@@H](CCCNC(=N)N)C(=O)N[C@@H](Cc1c[nH]cn1)C(=O)N[C@@H](Cc1ccc(O)cc1)C(=O)N[C@@H](CC(C)C)C(=O)N[C@@H](CC(N)=O)C(=O)NC1(C(=O)N[C@H](C(=O)N[C@H](C(=O)N[C@@H](CCCNC(=N)N)C(=O)N[C@@H](CCC(N)=O)C(=O)N[C@@H](CCCNC(=N)N)C(=O)N[C@@H](Cc2ccc(O)cc2)C(N)=O)[C@@H](C)O)C(C)C)CCCCC1
notes: as for B1
As for B9, the Ki with Y2 receptor was below 1000 nM; with Y1 receptor, below 2000 nM.

B10: Ac-[A6c^28]hPYY(22-36)NH2 (peptide)
peptide: Ac-ASLRHY[Ac6c]NLVTRQRY-NH2
SMILES: CC(=O)N[C@@H](C)C(=O)N[C@@H](CO)C(=O)N[C@@H](CC(C)C)C(=O)N[C@@H](CCCNC(=N)N)C(=O)N[C@@H](Cc1c[nH]cn1)C(=O)N[C@@H](Cc1ccc(O)cc1)C(=O)NC1(C(=O)N[C@@H](CC(N)=O)C(=O)N[C@@H](CC(C)C)C(=O)N[C@H](C(=O)N[C@H](C(=O)N[C@@H](CCCNC(=N)N)C(=O)N[C@@H](CCC(N)=O)C(=O)N[C@@H](CCCNC(=N)N)C(=O)N[C@@H](Cc2ccc(O)cc2)C(N)=O)[C@@H](C)O)C(C)C)CCCCC1
notes: as for B1
Consider B10, for which the figures for the inhibition constant (Ki) with Y2 receptor and with Y1 receptor were below 1000 nM and below 2000 nM, respectively.

B11: Ac-(3Pal^26, Leu^31)hPPY(24-36)NH2 (peptide)
peptide: Ac-LR[3Pal]YLNLLTRQRY-NH2
SMILES: CC(=O)N[C@@H](CC(C)C)C(=O)N[C@@H](CCCNC(=N)N)C(=O)N[C@@H](Cc1cccnc1)C(=O)N[C@@H](Cc1ccc(O)cc1)C(=O)N[C@@H](CC(C)C)C(=O)N[C@@H](CC(N)=O)C(=O)N[C@@H](CC(C)C)C(=O)N[C@@H](CC(C)C)C(=O)N[C@H](C(=O)N[C@@H](CCCNC(=N)N)C(=O)N[C@@H](CCC(N)=O)C(=O)N[C@@H](CCCNC(=N)N)C(=O)N[C@@H](Cc1ccc(O)cc1)C(N)=O)[C@@H](C)O
notes: as for B2
On to B11, for which the Ki in the assay with Y2 receptor is below 1000 nM; with Y1 receptor it was below 2000 nM.

B12: Ac-[3Pal^26]hPYY(22-36)NH2 (peptide)
peptide: Ac-ASLR[3Pal]YLNLVTRQRY-NH2
SMILES: CC(=O)N[C@@H](C)C(=O)N[C@@H](CO)C(=O)N[C@@H](CC(C)C)C(=O)N[C@@H](CCCNC(=N)N)C(=O)N[C@@H](Cc1cccnc1)C(=O)N[C@@H](Cc1ccc(O)cc1)C(=O)N[C@@H](CC(C)C)C(=O)N[C@@H](CC(N)=O)C(=O)N[C@@H](CC(C)C)C(=O)N[C@H](C(=O)N[C@H](C(=O)N[C@@H](CCCNC(=N)N)C(=O)N[C@@H](CCC(N)=O)C(=O)N[C@@H](CCCNC(=N)N)C(=O)N[C@@H](Cc1ccc(O)cc1)C(N)=O)[C@@H](C)O)C(C)C
notes: as for B1
B12: the inhibition constant (Ki) with Y2 receptor was below 1000 nM; with Y1 receptor, below 2000 nM.

In general, Ki refers to the equilibrium dissociation constant of an inhibitor or competing ligand from its target. High values mean lower affinity, low ones higher affinity.
